Experimental data taken from patent US10398755B2, “Clusterin pharmaceuticals and treatment methods using the same” (UNIVERSITY OF SOUTHERN CALIFORNIA, priority 2009, dated 2019).

Target: T1, MMP-2 (Mus musculus, UniProt P33434)
T1 construct: purchased R&D Systems
Experiment: MMP inhibition assay (FRET peptide substrate), APMA-activated pro-MMP-2
Assay type: biochemical
Description: RFU, relative fluorescence unit, was obtained by considering the read out in PBS as 100%. Each reaction was performed in triplicate. Standard errors were depicted as a bar in each graph. Differences between values of PBS and CLU or SB-3CT reactions were statistically significant by Student t-test: *P=0.0004, **P=0.0001, +P=0.0003, and ++P=0.01. Gelatin zymography was performed with the samples pooled from each reaction set. Pro-MMPs, processed MMPs (MMP-9 or MMP-2), and C-terminal truncated, processed MMP-9 (MMP-9-ΔC) were indicated by arrows. (B) Dose-dependent inhibition of MMP-9 by CLU or SB-3CT was performed in the same condition. MMPs were mixed with CLD in TSCB buffer, 50 mM Tris-HCI, pH, 7.5, 150 mM NaCl, 5 mM CaCl2, 0.002% Brij35 (or otherwise indicated concentration) 30 min prior to substrate addition, and incubated for 3 h at RT in the presence or absence of 0.02 mM p-aminophenylmercuric acetate (APMA). MMP activity was measured using a 5-FAM/QXL520 fluorescence resonance energy transfer (FRET) peptide as a substrate (EXlEm=490 nm/520 nm) (AnaSpec, Fremont, Calif.), according to the manufacturer's protocol. Relative fluorescence unit (RFU) was obtained by subtracting the values of APMA- or enzyme-omitted reactions from those of test samples, and then considering the fluorescence unit of a PBS (vehicle) sample as 100%. Enzyme reactions were performed in black 96-well plate, containing combinations of 10 ng, 5 ng, 5 ng, 10 ng, 2.5 μg, 2.5 μg of MMP-2, MMP-7, catalytic domain of MMP-9, MMP-9, CCLU, and/or BSA, respectively, in 50 μl reaction volume. As MMP substrates (0.4 μM), 520 MMP FRET substrate […] (SEQ ID NO: 9), was used for MMP-2 and MMP-9, and 520 MMP FRET substrate XIV, […] […] Fluorescence was monitored using a Victor^3TM V multilabel counter (PerkinElmer). […] To determine whether MMP-9/CLU interaction affects the cleavage process of the propeptide of MMP-9 and/or interferes with enzymatic activity of the processed active enzyme, we performed an in vitro MMP-9 inhibition assay, by adopting FRET assay using a fluorescence-quenched peptide substrate (FIG. 3A). […] We incubated pro-MMP-9 with PBS, CLU, SB-3CT, or BSA, and a fluorescence peptide substrate in the presence or absence of APMA. […] We monitored the change in fluorescence value during the incubation of the reactions up to 3 h, which reflects the enzymatic activity of APMA-activated MMPs. […] At 3 h post incubation, the activity difference was read and reaction products were resolved by gelatin zymography. […] When the processed enzyme products were resolved on the gel, three bands were detected in the APMA-treated samples, pro-MMP-9, propeptide-cleaved MMP-9 (MMP-9), and MMP-9 with both propeptide and C-terminal region cleaved (MMP-9-ΔC), whereas only pro-MMP-9 was detected in APMA-omitted samples. […]

T1 sequence (P33434 110-662): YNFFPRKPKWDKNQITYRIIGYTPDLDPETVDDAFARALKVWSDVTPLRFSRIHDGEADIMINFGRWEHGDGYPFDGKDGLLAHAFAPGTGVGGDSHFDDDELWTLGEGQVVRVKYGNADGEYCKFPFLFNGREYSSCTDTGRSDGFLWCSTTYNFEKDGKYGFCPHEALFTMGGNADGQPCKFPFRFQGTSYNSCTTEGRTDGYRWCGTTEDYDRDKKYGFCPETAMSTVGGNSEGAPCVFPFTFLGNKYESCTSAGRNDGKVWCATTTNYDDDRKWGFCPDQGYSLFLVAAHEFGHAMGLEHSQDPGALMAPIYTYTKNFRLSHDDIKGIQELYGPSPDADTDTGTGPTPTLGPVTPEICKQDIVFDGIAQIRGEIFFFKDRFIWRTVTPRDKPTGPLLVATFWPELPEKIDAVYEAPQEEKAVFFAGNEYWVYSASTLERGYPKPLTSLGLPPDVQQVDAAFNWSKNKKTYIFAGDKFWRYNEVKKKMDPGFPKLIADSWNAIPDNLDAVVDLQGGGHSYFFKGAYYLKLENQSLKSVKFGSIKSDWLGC

- effect on APMA-induced processing of MMP-2 (gel analysis) (APMA-treated reactions): processing of MMP-2 was not altered
- inhibition of MMP-2 activity (CLU 50 μg/ml (0.63 μM), APMA, RT 3 h): 72%
B1: CLU: secreted disulfide-linked heterodimeric glycoprotein (70-80 KD); assays used recombinant mouse CLU with C-terminal (His)6 (protein, UniProt Q06890 22-448, looked up)
Clusterin: EQEVSDNELQELSTQGSRYINKEIQNAVQGVKHIKTLIEKTNAERKSLLNSLEEAKKKKEDALEDTRDSEMKLKAFPEVCNETMMALWEECKPCLKHTCMKFYARVCRSGSGLVGQQLEEFLNQSSPFYFWMNGDRIDSLLESDRQQSQVLDAMQDSFARASGIIDTLFQDRFFARELHDPHYFSPIGFPHKRPHFLYPKSRLVRSLMSPSHYGPPSFHNMFQPFFEMIHQAQQAMDVQLHSPAFQFPDVDFLREGEDDRTVCKEIRRNSTGCLKMKGQCEKCQEILSVDCSTNNPAQANLRQELNDSLQVAERLTEQYKELLQSFQSKMLNTSSLLEQLNDQFNWVSQLANLTQGEDKYYLRVSTVTTHSSDSEVPSRVTEVVVKLFDSDPITVVLPEEVSKDNPKFMDTVAEKALQEYRRKSRAE
modifications: C-terminal His6 tag
- potency on MMP-2 compared with SB-3CT (CLU 50 μg/ml or 0.63 μM versus SB-3CT 1 μM): more potent inhibitor of both MMP-9 and MMP-2 than SB-3CT
- MMP-2 inhibition at high detergent concentration (buffer with 0.04% Brij 35 or NP-40): inhibited by CLU in both buffers to the extent similar to that in the lower detergent concentration
